Source: patent US20120263722A1 (AbbVie / Abbott, published 2012)

Columns and labels:
ErbB3 = molecular target: T1, ErbB3 (UniProt P21860 20-643, limits assumed); assay: SPR (BIACORE), N-terminal variable domain to target antigen
T1 construct: also called v-erb-b2 avian erythroblastic leukemia viral oncogene homolog 3
Protocol: (§1) The BIACORE assay (Biacore, Inc, Piscataway, N.J.) determines the affinity of antibodies or DVD-Ig with kinetic measurements of on-rate and off-rate constants. Binding of antibodies or DVD-Ig to a target antigen (for example, a purified recombinant target antigen) was determined by surface plasmon resonance-based measurements with a Biacore® 1000 or 3000 instrument (Biacore® AB. Uppsala, Sweden) using running HBS-EP (10 mM HEPES [pH 7.4], 150 mM NaCl, 3 mM EDTA, and 0.005% surfactant P20) at 25° C. All chemicals were obtained from Biacore® AB (Uppsala, Sweden) or otherwise from a different source as described in the text.
(§2) For example, approximately 5000 RU of goat anti-mouse IgG, (Fcγ), fragment specific polyclonal antibody (Pierce Biotechnology Inc, Rockford, Ill.) diluted in 10 mM sodium acetate (pH 4.5) is directly immobilized across a CMS research grade biosensor chip using a standard amine coupling kit according to manufacturer's instructions and procedures at 25 μg/ml. Unreacted moieties on the biosensor surface are blocked with ethanolamine. Modified carboxymethyl dextran surface in flowcell 2 and 4 is used as a reaction surface. Unmodified carboxymethyl dextran without goat anti-mouse. IgG in flow cell 1 and 3 is used as the reference surface. For kinetic analysis, rate equations derived from the 1:1 Langmuir binding model are fitted simultaneously to association and dissociation phases of all eight injections (using global fit analysis) with the use of Biaevaluation 4.0.1 software. Purified antibodies or DVD-Ig are diluted in HEPES-buffered saline for capture across goat anti-mouse IgG specific reaction surfaces. Antibodies or DVD-Ig, to be captured as a ligand (25 μg/ml) are injected over reaction matrices at a flow rate of 5 μl/min. The association and dissociation rate constants, kₒₙ(M⁻¹s⁻¹) and koff (s⁻¹) are determined under a continuous flow rate of 25 μl/min. Rate constants are derived by making kinetic binding measurements at different antigen concentrations ranging from 10-200 nM. The equilibrium dissociation constant (M) of the reaction between antibodies or DVD-Igs and the target antigen is then calculated from the kinetic rate constants by the following formula: KD=koff/Kₒₙ. Binding is recorded as a function of time and kinetic rate constants are calculated.

[1] = molecular target: T2, Recombinant Human MSP R/RON (human, UniProt Q04912 25-571, limits assumed); assay: as above
T2 construct: Bought reagent used in the Biacore analyses; also called macrophage stimulating protein receptor tyrosine kinase
Protocol: as §1, §2

[2] = molecular target: T3, Recombinant Human VEGF 165 (human, UniProt P15692-4 27-191); assay: as above
T3 construct: Bought reagent used in the Biacore analyses; also called vascular endothelial growth factor
T3 sequence (P15692 other isoform, or with tags, fused parts or gaps limits assumed): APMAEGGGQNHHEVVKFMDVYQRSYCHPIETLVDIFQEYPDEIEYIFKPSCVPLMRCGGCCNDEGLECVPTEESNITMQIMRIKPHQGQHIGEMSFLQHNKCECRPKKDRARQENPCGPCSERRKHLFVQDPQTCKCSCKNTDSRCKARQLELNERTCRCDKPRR
Protocol: as §1, §2

Recombinant Human DLL4 = molecular target: T4, Recombinant Human DLL4 (human, UniProt Q9NR61 27-524); assay: as above
T4 construct: Bought reagent used in the Biacore analyses; also called Delta-like ligand 4
T4 sequence (Q9NR61 27-524 limits assumed): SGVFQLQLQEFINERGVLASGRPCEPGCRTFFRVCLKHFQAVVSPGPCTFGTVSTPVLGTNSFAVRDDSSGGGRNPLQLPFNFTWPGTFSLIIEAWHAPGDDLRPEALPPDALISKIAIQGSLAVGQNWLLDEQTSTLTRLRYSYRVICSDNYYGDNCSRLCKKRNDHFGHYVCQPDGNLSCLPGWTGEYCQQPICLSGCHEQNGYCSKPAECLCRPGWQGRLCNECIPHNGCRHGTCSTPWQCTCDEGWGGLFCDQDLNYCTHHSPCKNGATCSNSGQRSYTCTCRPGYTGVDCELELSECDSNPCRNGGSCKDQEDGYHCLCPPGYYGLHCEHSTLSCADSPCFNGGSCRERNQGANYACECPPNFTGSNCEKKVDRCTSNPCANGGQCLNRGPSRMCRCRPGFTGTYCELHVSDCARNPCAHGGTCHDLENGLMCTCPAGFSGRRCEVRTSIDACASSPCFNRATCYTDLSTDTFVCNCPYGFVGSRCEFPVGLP
Protocol: as §1, §2

NRP1 on the cell surface = molecular target: T5, NRP1 on the cell surface (human, UniProt O14786 22-923); assay: flow cytometry on cells carrying the target, antibody or DVD-Ig at 2 ug/mL
T5 construct: whole, on cells; also called neuropilin 1
Protocol: (§3) Binding of monoclonal antibodies to the surface of human tumor cell fines was assessed by flow cytometry. For example, stable cell lines overexpressing a cell-surface antigen of interest or human tumor cell lines were harvested from tissue culture flasks and resuspended in phosphate buffered saline (PBS) containing 5% fetal bovine serum (PBS/FBS). Prior to staining, human tumor cells were incubated on ice with (100 μl) human IgG at 5 μg/ml in PBS/FCS. 1-5×10⁵ cells were incubated with antibody or DVD-Ig (2 μg/mL) in PBS/FBS for 30-60 minutes on ice. […] After 30 minutes incubation on ice, cells were washed twice and resuspended in PBS/PBS. Fluorescence was measured using a Becton Dickinson FACSCalibur (Becton Dickinson, San Jose, Calif.).
(§4) The geometric mean is the n root of the multiplication product of n fluorescent signals (a1×a2×a3 . . . an). With log-transformed data the geometric mean is used to normalize the weighting of the data distribution.

[3] = molecular target: T6, Recombinant Human Neuropilin-1 (human, UniProt O14786-2 22-644, limits assumed); assay: SPR (BIACORE), N-terminal variable domain to target antigen
T6 construct: Bought reagent used in the Biacore analyses; also called NRP1; NRP-1
Protocol: as §1, §2

Recombinant Human PIGF = molecular target: T7, Recombinant Human PIGF (human, UniProt P49763-2 21-149, limits assumed); assay: as above
T7 construct: Bought reagent used in the Biacore analyses; also called PlGF; placental growth factor
T7 sequence (looked up): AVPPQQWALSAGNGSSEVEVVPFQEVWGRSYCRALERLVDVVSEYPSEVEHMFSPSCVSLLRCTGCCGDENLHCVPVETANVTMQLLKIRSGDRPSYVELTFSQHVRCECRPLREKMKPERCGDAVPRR
Protocol: as §1, §2

EGFR on the cell surface = molecular target: T8, EGFR on the cell surface (human, UniProt P00533 25-1210); assay: flow cytometry on cells carrying the target, antibody or DVD-Ig at 2 ug/mL
T8 construct: whole, on cells; also called epidermal growth factor receptor
Protocol: as §3, §4

B1: DVD1855 (bispecific antibody, human IgG1, kappa)
heavy: not shown
light: DIEMTQSPDSLAVSLGERATINCRSSQSVLYSSSNRNYLAWYQQNPGQPPKLLIYWASTRESGVPDRFSGSGSGTDFTLTISSLQAEDVAVYYCQQYYSTPRTFGQGTKVEIKRTVAAPQIVLIQSPAIMSASPGEKVTMTCSASSSVSYMYWYQQKPGSSPRLLIYDTSNLASGVPVRFSGSGSGTSYSLTISRMEAEDAATYYCQQWSGYPYTFGGGTKLEIKRTVAAPSVFIFPPSDEQLKSGTASVVCLLNNFYPREAKVQWKVDNALQSGNSQESVTEQDSKDSTYSLSSTLTLSKADYEKHKVYACEVTHQGLSSPVTKSFNRGEC
notes: also called DVD1855H; DVD1855L
- Kd (ErbB3): 3.7 nM
- koff (ErbB3): 0.00038 s⁻¹
- kon (ErbB3): 100000 M⁻¹ s⁻¹

B2: DVD1871 (bispecific antibody, human IgG1, kappa)
heavy: not shown
light: QAVLTQPSSLSAPPGASASLTCTLRSGFNVDSYRISWYQQKPGSPPQYLLRYKSDSDKQQGSGVPSRFSGSKDASANAGILLISGLQSEDEADYYCMIWHSSAWVFGGGTKLTVLRTVAAPQIVLIQSPAIMSASPGEKVTMTCSASSSVSYMYWYQQKPGSSPRLLIYDTSNLASGVPVRFSGSGSGTSYSLTISRMEAEDAATYYCQQWSGYPYTFGGGTKLEIKRTVAAPSVFIFPPSDEQLKSGTASVVCLLNNFYPREAKVQWKVDNALQSGNSQESVTEQDSKDSTYSLSSTLTLSKADYEKHKVYACEVTHQGLSSPVTKSFNRGEC
notes: also called DVD1871H; DVD1871L
- Kd [1]: > 1 nM
- koff [1]: > 0.01 s⁻¹
- kon [1]: > 1e+07 M⁻¹ s⁻¹

B3: DVD1901 (bispecific antibody, human IgG1, kappa)
heavy: not shown
light: DIQMTQSPSSLSASVGDRVTITCRASQDVSTAVAWYQQKPGKAPKLLIYSASFLYSGVPSRFSGSGSGTDFTLTISSLQPEDFATYYCQQSYTTPPTFGQGTKVEIKRTVAAPQIVLIQSPAIMSASPGEKVTMTCSASSSVSYMYWYQQKPGSSPRLLIYDTSNLASGVPVRFSGSGSGTSYSLTISRMEAEDAATYYCQQWSGYPYTFGGGTKLEIKRTVAAPSVFIFPPSDEQLKSGTASVVCLLNNFYPREAKVQWKVDNALQSGNSQESVTEQDSKDSTYSLSSTLTLSKADYEKHKVYACEVTHQGLSSPVTKSFNRGEC
notes: also called DVD1901H; DVD1901L
- Kd [2]: 0.16 nM
- koff [2]: 9.3e-05 s⁻¹
- kon [2]: 580000 M⁻¹ s⁻¹

B4: DVD1867 (bispecific antibody, human IgG1, kappa)
heavy: not shown
light: DIQMTQSPSSLSASVGDRVTITCRASQDVSTAVAWYQQKPGKAPKLLIYSASFLYSGVPSRFSGSGSGTDFTLTISSLQPEDFATTYYCQQSYTGTVTFGQGTKVEIKRTVAAPQIVLIQSPAIMSASPGEKVTMTCSASSSVSYMYWYQQKPGSSPRLLIYDTSNLASGVPVRFSGSGSGTSYSLTISRMEAEDAATYYCQQWSGYPYTFGGGTKLEIKRTVAAPSVFIFPPSDEQLKSGTASVVCLLNNFYPREAKVQWKVDNALQSGNSQESVTEQDSKDSTYSLSSTLTLSKADYEKHKVYACEVTHQGLSSPVTKSFNRGEC
notes: Outer domain anti-DLL4 (AB015), inner domain anti-IL-6 (AB040); also called DVD1867H; DVD1867L
- Kd (Recombinant Human DLL4): 0.49 nM
- koff (Recombinant Human DLL4): 0.00022 s⁻¹
- kon (Recombinant Human DLL4): 460000 M⁻¹ s⁻¹

B5: DVD1865 (bispecific antibody, human IgG1, kappa)
heavy: not shown
light: DIQMTQSPSSLSASVGDRVTITCSASQDISNYLNWYQQKPGKAPKVLIYFTSSLHSGVPSRFSGSGSGTDFTLTISSLQPEDFATYYCQQYSTVPWTFGQGTKVEIKRTVAAPQIVLIQSPAIMSASPGEKVTMTCSASSSVSYMYWYQQKPGSSPRLLIYDTSNLASGVPVRFSGSGSGTSYSLTISRMEAEDAATYYCQQWSGYPYTFGGGTKLEIKRTVAAPSVFIFPPSDEQLKSGTASVVCLLNNFYPREAKVQWKVDNALQSGNSQESVTEQDSKDSTYSLSSTLTLSKADYEKHKVYACEVTHQGLSSPVTKSFNRGEC
notes: also called DVD1865H; DVD1865L
- Kd [2]: < 0.002 nM
- koff [2]: < 1e-06 s⁻¹
- kon [2]: 640000 M⁻¹ s⁻¹

B6: DVD1899 (bispecific antibody, human IgG1, kappa)
heavy: not shown
light: QSALTQPASVSGSPGQSITISCTGTSSDVGSYNVVSWYQQHPGKAPKLIIYEVSQRPSGVSNRFSGSKSGNTASLTISGLQTEDEADYYCCSYAGSSIFVIFGGGTKVTVLGQPKAAPQIVLIQSPAIMSASPGEKVTMTCSASSSVSYMYWYQQKPGSSPRLLIYDTSNLASGVPVRFSGSGSGTSYSLTISRMEAEDAATYYCQQWSGYPYTFGGGTKLEIKRTVAAPSVFIFPPSDEQLKSGTASVVCLLNNFYPREAKVQWKVDNALQSGNSQESVTEQDSKDSTYSLSSTLTLSKADYEKHKVYACEVTHQGLSSPVTKSFNRGEC
notes: also called DVD1899H; DVD1899L
- Kd (ErbB3): 6.7 nM
- koff (ErbB3): 0.00026 s⁻¹
- kon (ErbB3): 38000 M⁻¹ s⁻¹

B7: DVD1889 (bispecific antibody, human IgG1, kappa)
heavy: not shown
light: DIQMTQSPSSLSASVGDRVTITCRASQSISSYLAWYQQKPGKAPKLLIYGASSRASGVPSRFSGSGSGTDFTLTISSLQPEDFATYYCQQYMSVPITFGQGTKVEIKRTVAAPQIVLIQSPAIMSASPGEKVTMTCSASSSVSYMYWYQQKPGSSPRLLIYDTSNLASGVPVRFSGSGSGTSYSLTISRMEAEDAATYYCQQWSGYPYTFGGGTKLEIKRTVAAPSVFIFPPSDEQLKSGTASVVCLLNNFYPREAKVQWKVDNALQSGNSQESVTEQDSKDSTYSLSSTLTLSKADYEKHKVYACEVTHQGLSSPVTKSFNRGEC
notes: also called DVD1889H; DVD1889L
- N-Terminal VD GEO MEAN (FACS geometric mean) (NRP1 on the cell surface): 15
- Kd [3]: 0.5 nM
- koff [3]: 0.00019 s⁻¹
- kon [3]: 380000 M⁻¹ s⁻¹

B8: DVD1869 (bispecific antibody, human IgG1, kappa)
heavy: not shown
light: DIVLTQSPDSLAVSLGERVTMNCKSSQSLLNSGMRKSFLAWYQQKPGQSPKLLIYWASTRESGVPDRFTGSGSGTDFTLTISSVQAEDVAVYYCKQSYHLFTFGSGTKLEIKRTVAAPQIVLIQSPAIMSASPGEKVTMTCSASSSVSYMYWYQQKPGSSPRLLIYDTSNLASGVPVRFSGSGSGTSYSLTISRMEAEDAATYYCQQWSGYPYTFGGGTKLEIKRTVAAPSVFIFPPSDEQLKSGTASVVCLLNNFYPREAKVQWKVDNALQSGNSQESVTEQDSKDSTYSLSSTLTLSKADYEKHKVYACEVTHQGLSSPVTKSFNRGEC
notes: Outer domain anti-PlGF (AB047), inner domain anti-IL-6 (AB040); also called DVD1869H; DVD1869L
- Kd (Recombinant Human PIGF): 0.02 nM
- koff (Recombinant Human PIGF): 0.00011 s⁻¹
- kon (Recombinant Human PIGF): 5.6e+06 M⁻¹ s⁻¹

B9: AB016 (antibody, V domains shown)
VH: EVQLVESGGGLVQPGGSLRLSCAASGFSFSSEPISWVRQAPGKGLEWVSSITGKNGYTYYADSVKGRFTISADTSKNTAYLQMNSLRAEDTAVYYCARWGKKVYGMDVWGQGTLVTVSS
VL: DIQMTQSPSSLSASVGDRVTITCRASQSISSYLAWYQQKPGKAPKLLIYGASSRASGVPSRFSGSGSGTDFTLTISSLQPEDFATYYCQQYMSVPITFGQGTKVEIKR
notes: Parent antibody; also called AB016VH; AB016VL
- N-Terminal VD GEO MEAN (FACS geometric mean) (NRP1 on the cell surface): 15.4

B10: DVD1875 (bispecific antibody, human IgG1, kappa)
heavy: not shown
light: DIQMTQSPSSLSASVGDRVTITCQASQDISNYLNWYQQKPGKAPKLLIYDASNLETGVPSRFSGSGSGTDFTFTISSLQPEDIATYFCQHFDHLPLAFGGGTKVEIKRTVAAPQIVLIQSPAIMSASPGEKVTMTCSASSSVSYMYWYQQKPGSSPRLLIYDTSNLASGVPVRFSGSGSGTSYSLTISRMEAEDAATYYCQQWSGYPYTFGGGTKLEIKRTVAAPSVFIFPPSDEQLKSGTASVVCLLNNFYPREAKVQWKVDNALQSGNSQESVTEQDSKDSTYSLSSTLTLSKADYEKHKVYACEVTHQGLSSPVTKSFNRGEC
notes: also called DVD1875H; DVD1875L
- N-Terminal VD GEO MEAN (FACS geometric mean) (EGFR on the cell surface): 717

B11: DVD1907 (bispecific antibody, human IgG1, kappa)
heavy: not shown
light: DIQMTQSPSSMSVSVGDRVTITCHSSQDINSNIGWLQQKPGKSFKGLIYHGTNLDDGVPSRFSGSGSGTDYTLTISSLQPEDFATYYCVQYAQFPWTFGGGTKLEIKRTVAAPQIVLIQSPAIMSASPGEKVTMTCSASSSVSYMYWYQQKPGSSPRLLIYDTSNLASGVPVRFSGSGSGTSYSLTISRMEAEDAATYYCQQWSGYPYTFGGGTKLEIKRTVAAPSVFIFPPSDEQLKSGTASVVCLLNNFYPREAKVQWKVDNALQSGNSQESVTEQDSKDSTYSLSSTLTLSKADYEKHKVYACEVTHQGLSSPVTKSFNRGEC
notes: also called DVD1907H; DVD1907L
- N-Terminal VD GEO MEAN (FACS geometric mean) (EGFR on the cell surface): 23.5

B12: DVD1857 (bispecific antibody, human IgG1, kappa)
heavy: not shown
light: DIQMTQSPSSLSASVGDRVTITCQASQDITNYLNWYQQKPGKAPKLLIYDASNLETGVPSRFSGSGSGTDFTFTISSLQPEDIATYNCQQCENFPITFGQGTRLEIKRTVAAPQIVLIQSPAIMSASPGEKVTMTCSASSSVSYMYWYQQKPGSSPRLLIYDTSNLASGVPVRFSGSGSGTSYSLTISRMEAEDAATYYCQQWSGYPYTFGGGTKLEIKRTVAAPSVFIFPPSDEQLKSGTASVVCLLNNFYPREAKVQWKVDNALQSGNSQESVTEQDSKDSTYSLSSTLTLSKADYEKHKVYACEVTHQGLSSPVTKSFNRGEC
notes: also called DVD1857H; DVD1857L
- Kd (ErbB3): 0.12 nM
- koff (ErbB3): 0.00015 s⁻¹
- kon (ErbB3): 1.2e+06 M⁻¹ s⁻¹

B13: DVD1853 (bispecific antibody, human IgG1, kappa)
heavy: not shown
light: DVVMTQSPLSLPVTPGEPASISCRSSQSLLHSNGFNYVDWYLQKPGQSPHLLIYFGSYRASGVPDRFSGSGSGTDFTLKISRVEAEDVGVYYCMQALQTPPWTFGQGTKVEIRRTVAAPQIVLIQSPAIMSASPGEKVTMTCSASSSVSYMYWYQQKPGSSPRLLIYDTSNLASGVPVRFSGSGSGTSYSLTISRMEAEDAATYYCQQWSGYPYTFGGGTKLEIKRTVAAPSVFIFPPSDEQLKSGTASVVCLLNNFYPREAKVQWKVDNALQSGNSQESVTEQDSKDSTYSLSSTLTLSKADYEKHKVYACEVTHQGLSSPVTKSFNRGEC
notes: also called DVD1853H; DVD1853L
- Kd [1]: 15 nM
- koff [1]: 0.00085 s⁻¹
- kon [1]: 58000 M⁻¹ s⁻¹
